Measurements published in patent publication US20260167699A1 (Chugai, published 2026).
Where a chain is given by its changes, count along the chain named.

B1: GpH7-A5/GpH7-B3 variant H268_05P/GpL16-k0 (antibody, human IgG1, kappa)
heavy 1: not shown
heavy 2: not shown
light: DIVMTQSPLSLPVTPGEPASISCQASESLVHSNRNTYLHWYLQKPGQSPQLLIYKVSNRFSGVPDRFSGSGSGTDFTLKISRVEAEDVGVYYCSQNTHVPPTFGQGTKVEIERTVAAPSVFIFPPSDEQLKSGTASVVCLLNNFYPREAKVQWKVDNALQSGNSQESVTEQDSKDSTYSLSSTLTLSKADYEKHKVYACEVTHQGLSSPVTKSFNRGEC
notes: heterodimerized IgG1, one H chain mutated; also called He Ab
B2: GpH7-A5/GpH7-B3 variant D270_08L/GpL16-k0 (antibody, human IgG1, kappa)
heavy 1: not shown
heavy 2: not shown
light: B1 light
notes: as for B1
B3: GpH7-A5/GpH7-B3 variant D270_10E/GpL16-k0 (antibody, human IgG1, kappa)
heavy 1: not shown
heavy 2: not shown
light: B1 light
notes: as for B1
B4: GpH7-A5/GpH7-B3 variant D270_14T/GpL16-k0 (antibody, human IgG1, kappa)
heavy 1: not shown
heavy 2: not shown
light: B1 light
notes: as for B1
B5: GpH7-A5/GpH7-B3 variant E269_01G/GpL16-k0 (antibody, human IgG1, kappa)
heavy 1: not shown
heavy 2: not shown
light: B1 light
notes: as for B1
B6: GpH7-A5/GpH7-B3 variant E269_02A/GpL16-k0 (antibody, human IgG1, kappa)
heavy 1: not shown
heavy 2: not shown
light: B1 light
notes: as for B1
B7: GpH7-A5/GpH7-B3 variant E269_09D/GpL16-k0 (antibody, human IgG1, kappa)
heavy 1: not shown
heavy 2: not shown
light: B1 light
notes: as for B1
B8: GpH7-A5/GpH7-B3 variant E269_13S/GpL16-k0 (antibody, human IgG1, kappa)
heavy 1: not shown
heavy 2: not shown
light: B1 light
notes: as for B1
B9: GpH7-A5/GpH7-B3 variant E269_14T/GpL16-k0 (antibody, human IgG1, kappa)
heavy 1: not shown
heavy 2: not shown
light: B1 light
notes: as for B1
B10: GpH7-A5/GpH7-B3 variant G236_02A/GpL16-k0 (antibody, human IgG1, kappa)
heavy 1: not shown
heavy 2: not shown
light: B1 light
notes: as for B1
B11: GpH7-A5/GpH7-B3 variant G236_09D/GpL16-k0 (antibody, human IgG1, kappa)
heavy 1: not shown
heavy 2: not shown
light: B1 light
notes: as for B1
B12: GpH7-A5/GpH7-B3 variant G236_10E/GpL16-k0 (antibody, human IgG1, kappa)
heavy 1: not shown
heavy 2: not shown
light: B1 light
notes: as for B1
B13: GpH7-A5/GpH7-B3 variant G236_20W/GpL16-k0 (antibody, human IgG1, kappa)
heavy 1: not shown
heavy 2: not shown
light: B1 light
notes: as for B1
B14: GpH7-A5/GpH7-B3 variant H268_01G/GpL16-k0 (antibody, human IgG1, kappa)
heavy 1: not shown
heavy 2: not shown
light: B1 light
notes: as for B1
B15: GpH7-A5/GpH7-B3 variant H268_02A/GpL16-k0 (antibody, human IgG1, kappa)
heavy 1: not shown
heavy 2: not shown
light: B1 light
notes: as for B1
B16: GpH7-A5/GpH7-B3 variant H268_03V/GpL16-k0 (antibody, human IgG1, kappa)
heavy 1: not shown
heavy 2: not shown
light: B1 light
notes: as for B1
B17: GpH7-A5/GpH7-B3 variant H268_04F/GpL16-k0 (antibody, human IgG1, kappa)
heavy 1: not shown
heavy 2: not shown
light: B1 light
notes: as for B1
B18: GpH7-A5/GpH7-B3 variant H268_06M/GpL16-k0 (antibody, human IgG1, kappa)
heavy 1: not shown
heavy 2: not shown
light: B1 light
notes: as for B1
B19: GpH7-A5/GpH7-B3 variant H268_07I/GpL16-k0 (antibody, human IgG1, kappa)
heavy 1: not shown
heavy 2: not shown
light: B1 light
notes: as for B1
B20: GpH7-A5/GpH7-B3 variant H268_08L/GpL16-k0 (antibody, human IgG1, kappa)
heavy 1: not shown
heavy 2: not shown
light: B1 light
notes: as for B1
B21: GpH7-A5/GpH7-B3 variant H268_09D/GpL16-k0 (antibody, human IgG1, kappa)
heavy 1: not shown
heavy 2: not shown
light: B1 light
notes: as for B1
B22: GpH7-A5/GpH7-B3 variant H268_10E/GpL16-k0 (antibody, human IgG1, kappa)
heavy 1: not shown
heavy 2: not shown
light: B1 light
notes: as for B1
B23: GpH7-A5/GpH7-B3 variant H268_11K/GpL16-k0 (antibody, human IgG1, kappa)
heavy 1: not shown
heavy 2: not shown
light: B1 light
notes: as for B1
B24: GpH7-A5/GpH7-B3 variant H268_12R/GpL16-k0 (antibody, human IgG1, kappa)
heavy 1: not shown
heavy 2: not shown
light: B1 light
notes: as for B1
B25: GpH7-A5/GpH7-B3 variant H268_13S/GpL16-k0 (antibody, human IgG1, kappa)
heavy 1: not shown
heavy 2: not shown
light: B1 light
notes: as for B1
B26: GpH7-A5/GpH7-B3 variant H268_14T/GpL16-k0 (antibody, human IgG1, kappa)
heavy 1: not shown
heavy 2: not shown
light: B1 light
notes: as for B1
B27: GpH7-A5/GpH7-B3 variant H268_15Y/GpL16-k0 (antibody, human IgG1, kappa)
heavy 1: not shown
heavy 2: not shown
light: B1 light
notes: as for B1
B28: GpH7-A5/GpH7-B3 variant H268_18N/GpL16-k0 (antibody, human IgG1, kappa)
heavy 1: not shown
heavy 2: not shown
light: B1 light
notes: as for B1
B29: GpH7-A5/GpH7-B3 variant H268_19Q/GpL16-k0 (antibody, human IgG1, kappa)
heavy 1: not shown
heavy 2: not shown
light: B1 light
notes: as for B1

biological target: T1, FcγRIIa(H) (human, UniProt P12318 34-217); experiment: SPR (Biacore), binding relative to GpH7-A5/GpH7-B3/GpL16-k0 x100;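 further: surface plasmon resonance at 25 °C, antibody captured on a sensor chip and soluble FcγR flowed over it in HBS-EP+ running buffer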
T1 construct: extracellular domain; also called FcγRIIa H type; 2aH
T1 sequence: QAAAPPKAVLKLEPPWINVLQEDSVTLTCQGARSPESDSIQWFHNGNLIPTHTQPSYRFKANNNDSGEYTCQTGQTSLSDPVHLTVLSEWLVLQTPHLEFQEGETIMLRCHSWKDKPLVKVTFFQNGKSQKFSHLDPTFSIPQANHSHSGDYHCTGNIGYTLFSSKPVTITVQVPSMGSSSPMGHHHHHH

| Binder | He/Con 2aH [%] |
| --- | --- |
| B1 | 82.7 |
| B2 | 81.8 |
| B3 | 111 |
| B4 | 81.3 |
| B5 | 72.3 |
| B6 | 78.7 |
| B7 | 105 |
| B8 | 70.7 |
| B9 | 70.3 |
| B10 | 145 |
| B11 | 93.5 |
| B12 | 116 |
| B13 | 153 |
| B14 | 100 |
| B15 | 115 |
| B16 | 100 |
| B17 | 112 |
| B18 | 85.8 |
| B19 | 91.2 |
| B20 | 85.9 |
| B21 | 134 |
| B22 | 126 |
| B23 | 89.8 |
| B24 | 90.9 |
| B25 | 114 |
| B26 | 93.5 |
| B27 | 113 |
| B28 | 113 |
| B29 | 104 |

biological target: T2, FcγRIa (human, UniProt P12314 16-292); experiment: as above
T2 construct: extracellular domain; also called 1a
T2 sequence (P12314 other isoform, or with tags, fused parts or gaps): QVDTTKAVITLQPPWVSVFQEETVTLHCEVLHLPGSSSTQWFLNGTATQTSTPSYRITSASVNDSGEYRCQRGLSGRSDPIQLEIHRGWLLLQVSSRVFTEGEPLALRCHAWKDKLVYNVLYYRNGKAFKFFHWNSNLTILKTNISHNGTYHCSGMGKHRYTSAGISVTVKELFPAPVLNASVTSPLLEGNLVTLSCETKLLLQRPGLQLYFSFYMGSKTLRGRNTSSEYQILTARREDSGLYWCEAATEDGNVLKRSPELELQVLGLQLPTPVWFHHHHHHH

| Binder | He/Con 1a [%] |
| --- | --- |
| B1 | 106 |
| B2 | 93.2 |
| B3 | 104 |
| B4 | 89.5 |
| B5 | 101 |
| B6 | 101 |
| B7 | 103 |
| B8 | 99.8 |
| B9 | 102 |
| B10 | 99.1 |
| B11 | 95.5 |
| B12 | 92.6 |
| B13 | 104 |
| B14 | 104 |
| B15 | 105 |
| B16 | 103 |
| B17 | 103 |
| B18 | 101 |
| B19 | 104 |
| B20 | 104 |
| B21 | 106 |
| B22 | 107 |
| B23 | 102 |
| B24 | 103 |
| B25 | 106 |
| B26 | 108 |
| B27 | 104 |
| B28 | 104 |
| B29 | 104 |

biological target: T3, FcγRIIb (human, UniProt P31994 43-217); experiment: as above
T3 construct: extracellular domain; also called 2b
T3 sequence: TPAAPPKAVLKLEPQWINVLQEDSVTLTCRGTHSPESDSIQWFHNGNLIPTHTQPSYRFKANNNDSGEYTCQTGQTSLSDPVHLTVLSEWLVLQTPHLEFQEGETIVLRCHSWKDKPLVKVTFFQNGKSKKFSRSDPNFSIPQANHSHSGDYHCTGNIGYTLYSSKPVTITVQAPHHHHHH

| Binder | He/Con 2b [%] |
| --- | --- |
| B1 | 122 |
| B2 | 50.8 |
| B3 | 72.5 |
| B4 | 54.8 |
| B5 | 54.1 |
| B6 | 52.4 |
| B7 | 110 |
| B8 | 50.2 |
| B9 | 53.2 |
| B10 | 101 |
| B11 | 174 |
| B12 | 115 |
| B13 | 60.7 |
| B14 | 151 |
| B15 | 175 |
| B16 | 120 |
| B17 | 94.2 |
| B18 | 69 |
| B19 | 93.4 |
| B20 | 71.2 |
| B21 | 251 |
| B22 | 242 |
| B23 | 87.2 |
| B24 | 94.3 |
| B25 | 168 |
| B26 | 90.3 |
| B27 | 112 |
| B28 | 164 |
| B29 | 140 |

biological target: T4, FcγRIIa(R) (human, UniProt P12318 34-217); experiment: as above
T4 construct: extracellular domain; also called FcγRIIa R type; 2aR
T4 sequence: T1 sequence with H134R

| Binder | He/Con 2aR [%] |
| --- | --- |
| B1 | 114 |
| B2 | 62.8 |
| B3 | 85.7 |
| B4 | 72.2 |
| B5 | 70.3 |
| B6 | 70.2 |
| B7 | 113 |
| B8 | 65.8 |
| B9 | 71 |
| B10 | 145 |
| B11 | 105 |
| B12 | 124 |
| B13 | 77.3 |
| B14 | 134 |
| B15 | 143 |
| B16 | 117 |
| B17 | 105 |
| B18 | 67.2 |
| B19 | 102 |
| B20 | 91.4 |
| B21 | 161 |
| B22 | 159 |
| B23 | 108 |
| B24 | 113 |
| B25 | 137 |
| B26 | 100 |
| B27 | 118 |
| B28 | 138 |
| B29 | 128 |
